How the values were obtained:
HeLa Kyoto [1] = test: solubility in G1/S (NP-40 vs SDS abundance) (log2 ratio); higher = more soluble; details: cell cycle stage: G1/S
HeLa Kyoto [2] = test: melting temperature (median over replicates), in situ; higher = more thermally stable
HeLa Kyoto [3] = test: solubility change mitosis vs G1/S (difference of NP-40 vs SDS log2 ratios) (log2 ratio difference); higher = more soluble in mitosis
HeLa Kyoto [4] = test: thermal stability score vs G1/S (z-score of summed log2 fold changes over temperatures); higher = more thermally stable than in G1/S
[5] = cell cycle stage: early G1 (4.5 h after nocodazole release)
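Wherever melting temperature (median over replicates), in situ is given: HeLa Kyoto cells synchronized by double thymidine or nocodazole block, proteins quantified by TMT10plex mass spectrometry, three independent biological replicates.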
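Wherever solubility change mitosis vs G1/S (difference of NP-40 vs SDS log2 ratios) is given: synchronized HeLa Kyoto cells (double thymidine block for G1/S, nocodazole release for mitosis), protein amounts in NP-40 versus SDS lysates quantified by mass spectrometry, three biological replicates.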
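Wherever solubility in G1/S (NP-40 vs SDS abundance) is given: HeLa Kyoto cells arrested at G1/S by double thymidine block, proteins quantified by TMT10plex mass spectrometry in mild NP-40 versus SDS extracts, three biological replicates.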
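Wherever thermal stability score vs G1/S (z-score of summed log2 fold changes over temperatures) is given: synchronized HeLa Kyoto cells, proteins quantified by TMT10plex mass spectrometry, three biological replicates, mitosis taken 0.5 h after nocodazole release, G1/S directly after double thymidine block.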

| Sequence | solubility in G1/S (log2) (HeLa Kyoto [1]) | melting temperature (HeLa Kyoto [2]; cell cycle stage: G1/S) [°C] | melting temperature (HeLa Kyoto [2]; cell cycle stage: mitosis) [°C] | solubility change mitosis (log2) (HeLa Kyoto [3]) | thermal stability score (HeLa Kyoto [4]; [5]) | thermal stability score (HeLa Kyoto [4]; cell cycle stage: mitosis) |
| --- | --- | --- | --- | --- | --- | --- |
| MDDREDLVYQAKLAEQAERYDEMVESMKKVAGMDVELTVEERNLLSVAYKNVIGARRASWRIISSIEQKEENKGGEDKLKMIREYRQMVETELKLICCDILDVLDKHLIPAANTGESKVFYYKMKGDYHRYLAEFATGNDRKEAAENSLVAYKAASDIAMTELPPTHPIRLGLALNFSVFYYEILNSPDRACRLAKAAFDDAIAELDTLSEESYKDSTLIMQLLRDNLTLWTSDMQGDGEEQNKEALQDVEDENQ [YWHAE] | 0.336 | 55.3 | 55.8 | 0.181 | -1.18 | -2.71 |
| MATYLEFIQQNEERDGVRFSWNVWPSSRLEATRMVVPLACLLTPLKERPDLPPVQYEPVLCSRPTCKAVLNPLCQVDYRAKLWACNFCFQRNQFPPAYGGISEVNQPAELMPQFSTIEYVIQRGAQSPLIFLYVVDTCLEEDDLQALKESLQMSLSLLPPDALVGLITFGRMVQVHELSCEGISKSYVFRGTKDLTAKQIQDMLGLTKPAMPMQQARPAQPQEHPFASSRFLQPVHKIDMNLTDLLGELQRDPWPVTQGKRPLRSTGVALSIAVGLLEGTFPNTGARIMLFTGGPPTQGPGMVVGDELKIPIRSWHDIEKDNARFMKKATKHYEMLANRTAANGHCIDIYACALDQTGLLEMKCCANLTGGYMVMGDSFNTSLFKQTFQRIFTKDFNGDFRMAFGATLDVKTSRELKIAGAIGPCVSLNVKGPCVSENELGVGGTSQWKICGLDPTSTLGIYFEVVNQHNTPIPQGGRGAIQFVTHYQHSSTQRRIRVTTIARNWADVQSQLRHIEAAFDQEAAAVLMARLGVFRAESEEGPDVLRWLDRQLIRLCQKFGQYNKEDPTSFRLSDSFSLYPQFMFHLRRSPFLQVFNNSPDESSYYRHHFARQDLTQSLIMIQPILYSYSFHGPPEPVLLDSSSILADRILLMDTFFQIVIYLGETIAQWRKAGYQDMPEYENFKHLLQAPLDDAQEILQARFPMPRYINTEHGGSQARFLLSKVNPSQTHNNLYAWGQETGAPILTDDVSLQVFMDHLKKLAVSSAC [SEC23B] | 0.0443 | 50.4 | 50.9 | -0.175 | 0.832 | 0.395 |
| MMLGPEGGEGFVVKLRGLPWSCSVEDVQNFLSDCTIHDGAAGVHFIYTREGRQSGEAFVELGSEDDVKMALKKDRESMGHRYIEVFKSHRTEMDWVLKHSGPNSADSANDGFVRLRGLPFGCTKEEIVQFFSGLEIVPNGITLPVDPEGKITGEAFVQFASQELAEKALGKHKERIGHRYIEVFKSSQEEVRSYSDPPLKFMSVQRPGPYDRPGTARRYIGIVKQAGLERMRPGAYSTGYGGYEEYSGLSDGYGFTTDLFGRDLSYCLSGMYDHRYGDSEFTVQSTTGHCVHMRGLPYKATENDIYNFFSPLNPVRVHIEIGPDGRVTGEADVEFATHEEAVAAMSKDRANMQHRYIELFLNSTTGASNGAYSSQVMQGMGVSAAQATYSGLESQSVSGCYGAGYSGQNSMGGYD [HNRNPF] | -0.0868 | 48 | 49 | -0.0538 | 3.58 | 9.17 |
| MTPPRLFWVWLLVAGTQGVNDGDMRLADGGATNQGRVEIFYRGQWGTVCDNLWDLTDASVVCRALGFENATQALGRAAFGQGSGPIMLDEVQCTGTEASLADCKSLGWLKSNCRHERDAGVVCTNETRSTHTLDLSRELSEALGQIFDSQRGCDLSISVNVQGEDALGFCGHTVILTANLEAQALWKEPGSNVTMSVDAECVPMVRDLLRYFYSRRIDITLSSVKCFHKLASAYGARQLQGYCASLFAILLPQDPSFQMPLDLYAYAVATGDALLEKLCLQFLAWNFEALTQAEAWPSVPTDLLQLLLPRSDLAVPSELALLKAVDTWSWGERASHEEVEGLVEKIRFPMMLPEELFELQFNLSLYWSHEALFQKKTLQALEFHTVPFQLLARYKGLNLTEDTYKPRIYTSPTWSAFVTDSSWSARKSQLVYQSRRGPLVKYSSDYFQAPSDYRYYPYQSFQTPQHPSFLFQDKRVSWSLVYLPTIQSCWNYGFSCSSDELPVLGLTKSGGSDRTIAYENKALMLCEGLFVADVTDFEGWKAAIPSALDTNSSKSTSSFPCPAGHFNGFRTVIRPFYLTNSSGVD [LGALS3BP] | -0.0572 | 54.5 | 55.9 | -0.127 | 1.36 | 2.15 |
| MSVVGIDLGFQSCYVAVARAGGIETIANEYSDRCTPACISFGPKNRSIGAAAKSQVISNAKNTVQGFKRFHGRAFSDPFVEAEKSNLAYDIVQLPTGLTGIKVTYMEEERNFTTEQVTAMLLSKLKETAESVLKKPVVDCVVSVPCFYTDAERRSVMDATQIAGLNCLRLMNETTAVALAYGIYKQDLPALEEKPRNVVFVDMGHSAYQVSVCAFNRGKLKVLATAFDTTLGGRKFDEVLVNHFCEEFGKKYKLDIKSKIRALLRLSQECEKLKKLMSANASDLPLSIECFMNDVDVSGTMNRGKFLEMCNDLLARVEPPLRSVLEQTKLKKEDIYAVEIVGGATRIPAVKEKISKFFGKELSTTLNADEAVTRGCALQCAILSPAFKVREFSITDVVPYPISLRWNSPAEEGSSDCEVFSKNHAAPFSKVLTFYRKEPFTLEAYYSSPQDLPYPDPAIAQFSVQKVTPQSDGSSSKVKVKVRVNVHGIFSVSSASLVEVHKSEENEEPMETDQNAKEEEKMQVDQEEPHVEEQQQQTPAENKAESEEMETSQAGSKDKKMDQPPQAKKAKVKTSTVDLPIENQLLWQIDREMLNLYIENEGKMIMQDKLEKERNDAKNAVEEYVYEMRDKLSGEYEKFVSEDDRNSFTLKLEDTENWLYEDGEDQPKQVYVDKLAELKNLGQPIKIRFQESEERPKLFEELGKQIQQYMKIISSFKNKEDQYDHLDAADMTKVEKSTNEAMEWMNNKLNLQNKQSLTMDPVVKSKEIEAKIKELTSTCSPIISKPKPKVEPPKEEQKNAEQNGPVDGQGDNPGPQAAEQGTDTAVPSDSDKKLPEMDID [HSPA4] | 0.198 | 51.3 | 51.1 | -0.0794 | 0.436 | 1.85 |

Reference: the supplement of paper PMC5998384
